In patent US20050112121A1 (YALE UNIVERSITY, published 2005):

B1: Delta (Drosophila), expression construct pMTDl1 (ligand)
chain: QVHSSGSFELRLKYFSNDHGRDNEGRCCSGESDGATGKCLGSCKTRFRVCLKHYQATIDTTSQCTYGDVITPILGENSVNLTDAQRFQNKGFTNPIQFPFSFSWPGTFSLIVEAWHDTNNSGNARTNKLLIQRLLVQQVLEVSSEWKTNKSESQYTSLEYDFRVTCDLNYYGSGCAKFCRPRDDSFGHSTCSETGEIICLTGWQGDYCHIPKCAKGCEHGHCDKPNQCVCQLGWKGALCNECVLEPNCIHGTCNKPWTCICNEGWGGLYCNQDLNYCTNHRPCKNGGTCFNTGEGLYTCKCAPGYSGDDCENEIYSCDADVNPCQNGGTCIDEPHTKTGYKCHCANGWSGKMCEEKVLTCSDKPCHQGICRNVRPGLGSKGQGYQCECPIGYSGPNCDLQLDNCSPNPCINGGSCQPSGKCICPAGFSGTRCETNIDDCLGHQCENGGTCIDMVNQYRCQCVPGFHGTHCSSKVDLCLIRPCANGGTCLNLNNDYQCTCRAGFTGKDCSVDIDECSSGPCHNGGTCMNRVNSFECVCANGFRGKQCDEESYDSVTFDAHQYGATTQARADGLTNAQVVLIAVFSVAMPLVAVIAACVVFCMKRKRKRAQEKDDAEARKQNEQNAVATMHHNGSGVGVALASASLGGKTGSNSGLTFDGGNPNIIKNTWDKSVNNICASAAAAAAAAAAADECLMYGGYVASVADNNNANSDFCVAPLQRAKSQKQLNTDPTLMHRGSPAGSSAKGASGGGPGAAEGKRISVLGEGSYCSQRWPSLAAAGVAGACSSQLMAAASAAGSGAGTAQQQRSVVCGTPHM
notes: also called Delta+ cells; L49-6-7 stably transformed Delta expressing cell line
B2: Serrate (Drosophila), expression construct Ser-mtn (ligand, UniProt P18168 83-1407, looked up)
chain: AGNFELEILEISNTNSHLLNGYCCGMPAELRATKTIGCSPCTTAFRLCLKEYQTTEQGASISTGCSFGNATTKILGGSSFVLSDPGVGAIVLPFTFRWTKSFTLILQALDMYNTSYPDAERLIEETSYSGVILPSPEWKTLDHIGRNARITYRVRVQCAVTYYNTTCTTFCRPRDDQFGHYACGSEGQKLCLNGWQGVNCEEAICKAGCDPVHGKCDRPGECECRPGWRGPLCNECMVYPGCKHGSCNGSAWKCVCDTNWGGILCDQDLNFCGTHEPCKHGGTCENTAPDKYRCTCAEGLSGEQCEIVEHPCATRPCRNGGTCTLKTSNRTQAQVYRTSHGRSNMGRPVRRSSSMRSLDHLRPEGQALNGSSSPGLVSLGSLQLQQQLAPDFTCDCAAGWTGPTCEINIDECAGGPCEHGGTCIDLIGGFRCECPPEWHGDVCQVDVNECEAPHSAGIAANALLTTTATAIIGSNLSSTALLAALTSAVASTSLAIGPCINAKECRNQPGSFACICKEGWGGVTCAENLDDCVGQCRNGATCIDLVNDYRCACASGFKGRDCETDIDECATSPCRNGGECVDMVGKFNCICPLGYSGSLCEEAKENCTPSPCLEGHCLNTPEGYYCHCPPDRAGKHCEQLRPLCSQPPCNEGCFANVSLATSATTTTTTTTTATTTRKMAKPSGLPCSGHGSCEMSDVGTFCKCHVGHTGTFCEHNLNECSPNPCRNGGICLDGDGDFTCECMSGWTGKRCSERATGCYAGQCQNGGTCMPGAPDKALQPHCRCAPGWTGLFCAEAIDQCRGQPCHNGGTCESGAGWFRCVCAQGFSGPDCRINVNECSPQPCQGGATCIDGIGGYSCICPPGRHGLRCEILLSDPKSACQNASNTISPYTALNRSQNWLDIALTGRTEDDENCNACVCENGTSRCTNLWCGLPNCYKVDPLSKSSNLSGVCKQHEVCVPALSETCLSSPCNVRGDCRALEPSRRVAPPRLPAKSSCWPNQAVVNENCARLTILLALERVGKGASVEGLCSLVRVLLAAQLIKKPASTFGQDPGMLMVLCDLKTGTNDTVELTVSSSKLNDPQLPVAVGLLGELLSFRQLNGIQRRKELELQHAKLAALTSIVEVKLETARVADGSGHSLLIGVLCGVFIVLVGFSVFISLYWKQRLAYRTSSGMNLTPSLDALRHEEEKSNNLQNEENLRRYTNPLKGSTSSLRAATGMELSLNPAPELAASAASSSALHRSQPLFPPCDFERELDSSTGLKQAHKRSSQILLHKTQNSDMRKNTVGSLDSPRKDFGKRSINCKSMPPSSGDEGSDVLATTVMV
notes: whole, on cells

How the values were obtained:
[1] = target: Delta (Drosophila), expression construct pMTDl1 (Drosophila) (UniProt P10041); assay: S2 cell aggregation, 24 hr
[2] = target: Delta (Drosophila), expression construct pMTDl1 (Drosophila) (UniProt P10041); assay: S2 cell aggregation, 48 hr
[3] = target: Notch (Drosophila), full length Notch expression construct #1 pMtNMg (Drosophila) (UniProt P07207); assay: S2 cell aggregation, 24 hr, Notch+ cells alone
[4] = target: Delta (Drosophila), expression construct pMTDl1 (Drosophila) (UniProt P10041); assay: S2 cell aggregation at 4 C, 1-2 hr, Notch+ cells pretreated with preimmune mouse sera (control; one of three experiments)
[5] = target: T1, Notch (Drosophila), full length Notch expression construct #1 pMtNMg (Drosophila, UniProt P07207 53-2703); assay: S2 cell aggregation assay
T1 construct: whole, on cells; also called intact Notch; Notch+ cells
From the text: (§1) FIG. 2. Notch Expression Constructs and the Deletion Mapping of the Delta/Serrate Binding Domain. S2 cells in log phase growth were transiently transfected with the series of expression constructs shown; the drawings represent the predicted protein products of the various Notch deletion mutants created. All expression constructs were derived from construct #1 pMtNMg. Transiently transfected cells were mixed with Delta expressing cells from the stably transformed line L49-6-7 or with transiently transfected Serrate expressing cells, induced with CuSO₄, incubated under aggregation conditions and then scored for their ability to aggregate using specific antisera and immunofluorescence microscopy. Aggregates were defined as clusters of four or more cells containing both Notch and Delta/Serrate expressing cells. The values given for % Aggregation refer to the percentage of all Notch expressing cells found in such clusters either with Delta (Dl) (left column) or with Serrate (Ser) (right column). The various Notch deletion constructs are represented diagrammatically with splice lines indicating the ligation junctions. Each EGF repeat is denoted as a stippled rectangular box and numbers of the EGF repeats on either side of a ligation junction are noted. At the ligation junctions, partial EGF repeats produced by the various deletions are denoted by open boxes and closed brackets (for example see #23 ΔCla+EGF(10-12)). Constructs #3-13 represent the ClaI deletion series. As diagrammed, four of the ClaI sites, in repeats 7, 9, 17 and 26, break the repeat in the middle, immediately after the third cysteine (denoted by open box repeats; see FIG. 3 for further clarification), while the fifth and most 3′ site breaks neatly between EGF repeats 30 and 31 (denoted by closed box repeat 31; again see FIG. 3). In construct #15 split, EGF repeat 14 which carries the split point mutation, is drawn as a striped box. In construct #33 ΔCla+XEGF(10-13), the Xenopus Notch derived EGF repeats are distinguished from Drosophila repeats by a different pattern of shading. […]

[6] = target: B2; assay: S2 cell aggregation assay
From the text: as §1

[7] = target: the molecule itself; assay: S2 cell aggregation assay
From the text: as §1

T1 sequence (P07207 53-2703): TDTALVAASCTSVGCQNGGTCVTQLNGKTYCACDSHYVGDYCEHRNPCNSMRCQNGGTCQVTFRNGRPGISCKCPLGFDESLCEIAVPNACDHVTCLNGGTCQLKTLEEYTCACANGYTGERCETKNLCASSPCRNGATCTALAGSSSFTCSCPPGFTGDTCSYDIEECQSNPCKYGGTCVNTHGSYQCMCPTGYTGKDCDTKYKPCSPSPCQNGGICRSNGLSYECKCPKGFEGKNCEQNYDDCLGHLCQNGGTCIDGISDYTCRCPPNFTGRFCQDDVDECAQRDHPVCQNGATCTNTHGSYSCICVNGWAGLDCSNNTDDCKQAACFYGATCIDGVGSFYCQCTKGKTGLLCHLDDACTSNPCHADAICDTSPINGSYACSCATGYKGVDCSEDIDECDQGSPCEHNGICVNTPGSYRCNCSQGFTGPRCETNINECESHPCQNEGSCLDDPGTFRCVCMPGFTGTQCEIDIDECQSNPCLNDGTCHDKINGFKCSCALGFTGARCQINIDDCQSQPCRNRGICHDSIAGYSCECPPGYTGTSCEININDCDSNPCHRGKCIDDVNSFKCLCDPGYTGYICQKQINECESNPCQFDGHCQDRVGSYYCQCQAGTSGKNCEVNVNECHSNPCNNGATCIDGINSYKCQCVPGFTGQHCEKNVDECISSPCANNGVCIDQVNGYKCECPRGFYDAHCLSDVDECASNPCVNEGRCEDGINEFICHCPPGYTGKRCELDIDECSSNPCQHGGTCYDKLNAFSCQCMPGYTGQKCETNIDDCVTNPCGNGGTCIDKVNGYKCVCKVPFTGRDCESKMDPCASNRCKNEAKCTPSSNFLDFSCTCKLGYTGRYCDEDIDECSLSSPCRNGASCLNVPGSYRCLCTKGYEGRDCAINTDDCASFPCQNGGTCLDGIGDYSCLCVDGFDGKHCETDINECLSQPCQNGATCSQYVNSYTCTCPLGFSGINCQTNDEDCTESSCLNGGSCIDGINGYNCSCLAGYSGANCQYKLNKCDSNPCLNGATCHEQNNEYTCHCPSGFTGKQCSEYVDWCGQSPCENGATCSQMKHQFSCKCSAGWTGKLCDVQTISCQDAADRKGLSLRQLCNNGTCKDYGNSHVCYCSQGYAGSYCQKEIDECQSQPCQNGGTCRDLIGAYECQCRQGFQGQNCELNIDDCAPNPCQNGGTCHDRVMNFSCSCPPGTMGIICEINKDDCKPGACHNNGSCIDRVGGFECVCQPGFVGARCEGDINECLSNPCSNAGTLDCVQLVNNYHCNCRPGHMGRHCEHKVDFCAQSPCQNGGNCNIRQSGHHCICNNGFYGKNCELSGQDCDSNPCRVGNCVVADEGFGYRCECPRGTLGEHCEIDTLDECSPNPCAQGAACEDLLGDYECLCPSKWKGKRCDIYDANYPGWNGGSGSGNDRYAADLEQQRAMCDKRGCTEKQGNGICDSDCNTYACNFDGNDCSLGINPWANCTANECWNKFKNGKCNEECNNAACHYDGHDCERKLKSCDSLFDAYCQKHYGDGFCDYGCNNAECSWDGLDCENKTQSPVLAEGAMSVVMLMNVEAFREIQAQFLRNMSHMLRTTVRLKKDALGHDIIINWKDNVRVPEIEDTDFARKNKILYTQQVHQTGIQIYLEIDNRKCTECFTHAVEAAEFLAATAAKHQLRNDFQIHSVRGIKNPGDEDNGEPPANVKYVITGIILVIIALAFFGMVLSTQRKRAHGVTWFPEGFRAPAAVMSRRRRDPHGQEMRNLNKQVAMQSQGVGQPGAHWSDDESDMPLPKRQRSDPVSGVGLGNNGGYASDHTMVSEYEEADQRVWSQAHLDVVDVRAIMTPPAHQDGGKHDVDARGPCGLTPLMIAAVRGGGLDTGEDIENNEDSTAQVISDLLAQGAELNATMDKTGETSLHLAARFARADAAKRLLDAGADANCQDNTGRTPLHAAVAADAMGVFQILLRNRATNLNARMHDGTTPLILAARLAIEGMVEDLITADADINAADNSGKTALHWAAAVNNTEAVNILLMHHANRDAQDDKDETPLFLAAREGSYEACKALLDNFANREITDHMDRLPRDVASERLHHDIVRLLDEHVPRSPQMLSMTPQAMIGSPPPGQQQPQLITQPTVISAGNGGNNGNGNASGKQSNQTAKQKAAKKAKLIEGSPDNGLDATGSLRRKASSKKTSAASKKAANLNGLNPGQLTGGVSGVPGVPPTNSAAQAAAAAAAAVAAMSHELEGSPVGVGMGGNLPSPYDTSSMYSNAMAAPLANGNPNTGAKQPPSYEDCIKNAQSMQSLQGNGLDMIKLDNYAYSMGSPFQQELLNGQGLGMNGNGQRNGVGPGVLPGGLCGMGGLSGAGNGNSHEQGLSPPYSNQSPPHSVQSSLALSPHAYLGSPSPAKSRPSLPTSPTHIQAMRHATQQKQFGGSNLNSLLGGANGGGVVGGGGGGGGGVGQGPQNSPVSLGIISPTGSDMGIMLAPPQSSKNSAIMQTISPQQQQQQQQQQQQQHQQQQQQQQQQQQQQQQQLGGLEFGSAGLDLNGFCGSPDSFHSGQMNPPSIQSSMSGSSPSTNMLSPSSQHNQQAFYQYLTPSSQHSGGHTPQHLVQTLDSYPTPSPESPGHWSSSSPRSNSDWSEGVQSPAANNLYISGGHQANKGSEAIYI

## Notch (Drosophila), full length Notch expression construct #1 pMtNMg, P07207 53-2703
[1]
  fraction of expressing cells found in clusters of four or more stained cells: 32 to 54%
[2]
  degree of aggregation: 63 to 71%
[3]
  fraction of expressing cells found in clusters of four or more stained cells: -0 to 5%
[4]
  % of Notch+ cells in Notch+-Delta+ cell aggregates: 23%

## B1
[5]
  binding result: binds
[6]
  binding result: no binding

## B2
[7]
  binding result: no binding
